Test: soluble fraction after stress (log2 fold change); higher = more stays soluble; pooled small domains, quantitative proteomics
Details: stress: pH 4
Summary of the method: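 High-throughput quantitative proteomics was run on pooled custom libraries of small protein domains following pH 4 stress. Fold changes are on a log2 scale; higher values mean more of a domain remained soluble. The fold change in soluble amount is taken as a measure of aggregation propensity.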

Compared with “HMGSIMIIVLKENAPQQAAEKLMKEIRAKGLQIDVSKGTRKTVLGLVGDTSVIDMEHVQGYDYVDKVLRV”, “HMKPFVVVPIDQVRVGMFIQLDLGWMQHPFPVGSFRVASEAQIDTLRSLDLESVRYLPAKSDPAFQQP” is lower in “soluble fraction (log2)” value: -0.674 for the first, -0.986 for the second.

“HMTKYKEIVDQLRTNIYEGVFPALSKLPEQTALAKRFQTSRMTIQKALNQLKQEGLISTKRGHGTYVNSAT” and “HMKTKTFSPGEIVKIQTRDKSWQGTILESHDPEIILLKLTTGYNIGIRENEIINAKVIEKSKKDVKDAE” are within 0.2 log units of each other in “soluble fraction (log2)” value: 0.021 for the first, 0.176 for the second.

Compared with “HMEVAAAENYRSKLSSFAKDTISVWQTELLLGTISDDDKASLTEWMAYIKALQVVDTSDPESITWPTEPT”, “HMQSLAAKINGYIVAQRTSIAAIAKEIGYSRVTVSRYLAGKYDSDPTGIEAKLAAFLAGQTGEE” is higher in “soluble fraction (log2)” value: -1.12 for the first, 0.114 for the second.

“HMSSETTVPAVVGIKEDKARQLASEQGLRLRVKSREESADVEEGIIISQDPNSNTKVKKGDEIEVVVS” and “HMREEQELFRKLLEVNGIGPKVAAGMLAGGRPEDVVSAIRREDVAWLTKLPGIGRKTAQRIVLDLKDKLD” are within 0.2 log units of each other in “soluble fraction (log2)” value: 0.32 for the first, 0.165 for the second.

Going from “HMGTRYVEFVIPGTGNHEVRIVSSNGSRQNVEVAGTYPGGARLRTKVDNGVRRVSFYVDNRLVEEKQ” to “HMGVREIIVQFLEQFDKPKSVQEIVEYVLRYRNTTENSIRSTMYSGSQFRQFDNGYFGLSDKSYPNEYIYA”, the “soluble fraction (log2)” value falls from -0.0183 to -1.25.

Compared with “HMRQSIHTALQLLTPREEEVLNLLVSGKSNKQVAEHFSLSSKTIERHRSSVMRKLDASSFAQLVRIAALR”, “HMKDMKISTQNILKELATNYPDQTAFRKNVIESTAKSMGYTGKDFYPMLTAETRVKIGTYDLSALLQTV” is higher in “soluble fraction (log2)” value: -0.404 for the first, -0.197 for the second.

“HMTGIRVYPNPTSSELRFSVATDAALYDATGARLRVVRGSDMMDIRDLASGTYYVRFADGSTQSVVVT” and “HMTVAQEIEARRATIRSSDPAEMARFIRWLIMEGHTEPAADELKKYAENFPEASATTKQLQALLAAR” are within 0.2 log units of each other in “soluble fraction (log2)” value: -0.0136 for the first, 0.147 for the second.

First: HMAKSPYDVLGLKEDAPFDEVKKRYRELVKKYHPDILMGRGESEEMIEKSTRKLQEINEAYETIKQRA
Second: HMESKPLTPSEIKKLRMDANMTQAGLAEVLGMTVKAVEAWESGRNIPSGAADKILRVMQKHPSVIGMMQS
The “soluble fraction (log2)” value of the first is lower: -0.0402 for the first, 0.247 for the second.

“HMNEYIVSAEQEGMRLDVFLTEQMEGSRSYIQSLIKGGHVTVGDKVGKANLRLTPDTVIHVEIPEPE” and “HMQNLETVEEIKELALNYLDKYQPSKKSLQVYLFRKAIDAQSNSVEKSEILKKIETVLTDLEEQGILNDAL” are within 0.2 log units of each other in “soluble fraction (log2)” value: -0.166 for the first, -0.139 for the second.

First: HMAEKEYYYATDALNLRQGPGMEHTVKGEVVLGERVALLGLEGKWAKIQNAQGTTGYVFSAYLAPS
Second: HMDFYVILGVDRAASLSDVKRAYRRLARKHHPDINPGDPESDAFFMRVTEAYETLVDPDRRQEYDEHG
The “soluble fraction (log2)” value of the first is higher: -0.147 for the first, -1.34 for the second.

Going from “HMNAVYAEERRAYILAALEKRGTVHSYELAEQMGVSRETIRRDIMELSNRGLLVKTHGGAIST” to “HMTVKKEIAKVKPTPLGWLRVRETPSLNGAEITKVNTGESYDVLDKETGWIKIKVSETVEGWVSDAYIELS”, the “soluble fraction (log2)” value rises from -0.352 to 0.124.

“HMIALLRLGTAPDIKAQAPLATILARHNGEMSAKDLWQRFGGEIDTFYAQLKTEVAHGWILEPT” and “HMVLPELRLQGLPTAVLRLINRATALADDYRRLMEIAEDGRIDEWEAPEFERISENIQRVIAAGFEVL” are within 0.2 log units of each other in “soluble fraction (log2)” value: 0.0698 for the first, 0.1 for the second.

“HMEVGKRIAEIRKENRMSQEQFGQLFHVTRQTVSNWENAKSYPDLQTLVKISELFEITMDELLK” and “HMDAISYTQFMEEAKQGRINKVEVQGRTLMVTPTDGKAYSLTSPGDLWMTTDLMKYGVNVYGAE” are within 0.2 log units of each other in “soluble fraction (log2)” value: -0.454 for the first, -0.527 for the second.

First: HMEPVDYEALRKELMQKVMGLFTQSRDVGIQILSSFGAKKLSDVPDDKLVAFAASVDKALAG
Second: HMTALPPNVSIDSDERRLLEAIGFDPVDMDVLARDGQFSSVDLFRLLVSLELKGLVENQHGAYQRL
The “soluble fraction (log2)” value of the first is higher: 0.138 for the first, -1.67 for the second.

“HMKKNLELGLLPHEVKSILGEPDFIDTITDIDGIRYDMWSYTKLNVTKRLYFEDLFLVRMEE” and “HMERFRQVNAGMTRDDIYQLLGKPTEKTPFPLKNEEVWSWRHQADGQTVALFNIHLDPDGRVTTTSQSMDL” are within 0.2 log units of each other in “soluble fraction (log2)” value: -1.42 for the first, -1.32 for the second.

Going from “HMKTPIEFGSVYNDPVRYVIGMSIKSAESINQAIYDMMKIFGDENNMNKFDSLPDEQAVLDMVNSF” to “HMKLTKPKLIQLIHIAKSKLNMDELSYRVLLDNLTGKTSTTKMTVGELLKVYESMKDKGFKPQV”, the “soluble fraction (log2)” value rises from -0.208 to 0.104.

Going from “HMSVKYLQIYHAIREKILSNEYAINQQLPDEITLTKEFNSSRMTVKKALDLLVSEGLIFRKRGQGTFVLSR” to “HMDAYMIGHNIAKWRKEKGMTQDQLAEHLSVSGQAVSKWENGASLPDIAILPKLAEIFDVTMDQLFSR”, the “soluble fraction (log2)” value falls from no less than 0.43 to 0.166.

“HMIDKIRYPELIMKLAHQQGGTIKRRDVEQLLHLQTKQAYRELSKLVDAGELVSVGRGPGAHYEVS” and “HMVPTYEAYVGKEGLVVGTLRPAGTAEFDGERLDVVSEGEYLEAGTRVQIVRTEGRRIVVRKIN” are within 0.2 log units of each other in “soluble fraction (log2)” value: -0.0885 for the first, -0.233 for the second.

Compared with “HMQASTGNVNTETLNLRKEASTSADILKLLSQGDEVEIVSESNGWYKVKYKDTEGFVSKEYITVN”, “HMQGISGIERSLLDALAFEPAGLDALQARTGLDTPTLQALLMGLELQGHVARLPGSLFQRLVR” is lower in “soluble fraction (log2)” value: -0.159 for the first, -1.35 for the second.
